# The supplement of paper PMC9112550, “Optimization of the antimicrobial peptide Bac7 by deep mutational scanning” (BMC Biology, 2022)
# System: Escherichia coli TOP10
# Assay: shrunken log2 fold change of peptide-encoding DNA abundance (4.5 h post-induction vs induction); higher = less antimicrobial activity (less host growth inhibition)
# Conditions: time post-induction: 4.5 h; library: site-saturation at positions 5, 18, 19, 20
# 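Also: peptides expressed intracellularly from a pBAD plasmid library in pooled LB shake-flask culture, induced with 0.3% L-arabinose, DNA abundance read by NGS, three biological replicates, DESeq2 with apeglm shrinkage.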
row,Sequence,shrunken log2 fold change
1,RRIRCRPPRLPRPRPRPVFFPRP,-0.0521
2,RRIRMRPPRLPRPRPRPDQWPRP,0.312
3,RRIRWRPPRLPRPRPRPAPNPRP,3.12
4,RRIRGRPPRLPRPRPRPCDVPRP,-0.014
5,RRIRQRPPRLPRPRPRPQAWPRP,0.0305
6,RRIRWRPPRLPRPRPRPENSPRP,0.0193
7,RRIRGRPPRLPRPRPRPKHYPRP,0.0538
8,RRIRGRPPRLPRPRPRPYMHPRP,-0.355
9,RRIRERPPRLPRPRPRPSHQPRP,-0.19
10,RRIRLRPPRLPRPRPRPHCPPRP,0.0666
11,RRIRRRPPRLPRPRPRPETIPRP,0.175
12,RRIRMRPPRLPRPRPRPIPKPRP,0.0362
13,RRIRKRPPRLPRPRPRPLIFPRP,-0.0683
14,RRIRNRPPRLPRPRPRPRTKPRP,0.123
15,RRIRYRPPRLPRPRPRPASSPRP,-0.0244
16,RRIRARPPRLPRPRPRPAKEPRP,0.521
17,RRIRDRPPRLPRPRPRPSMIPRP,-0.162
18,RRIRGRPPRLPRPRPRPFPGPRP,0.0889
19,RRIRDRPPRLPRPRPRPHTMPRP,-0.863
20,RRIRHRPPRLPRPRPRPQTGPRP,-0.169
21,RRIRGRPPRLPRPRPRPINTPRP,-0.4
22,RRIRHRPPRLPRPRPRPSEIPRP,-0.0493
23,RRIRYRPPRLPRPRPRPEKPPRP,-0.00145
24,RRIRIRPPRLPRPRPRPYMAPRP,-0.281
25,RRIRERPPRLPRPRPRPAPLPRP,0.324

row,Sequence,shrunken log2 fold change
1,RRIRLRPPRLPRPRPRPYLPPRP,-0.18
2,RRIRIRPPRLPRPRPRPYCNPRP,-0.154
3,RRIRKRPPRLPRPRPRPCIKPRP,0.193
4,RRIRRRPPRLPRPRPRPRSLPRP,-0.0226
5,RRIRERPPRLPRPRPRPTAHPRP,0.0481
6,RRIRWRPPRLPRPRPRPPKFPRP,0.419
7,RRIRVRPPRLPRPRPRPWERPRP,0.153
8,RRIRTRPPRLPRPRPRPDRPPRP,0.188
9,RRIRARPPRLPRPRPRPMVEPRP,0.0234
10,RRIRMRPPRLPRPRPRPGSMPRP,0.668
11,RRIRKRPPRLPRPRPRPQDTPRP,-0.0445
12,RRIRARPPRLPRPRPRPYLKPRP,-0.352
13,RRIRCRPPRLPRPRPRPSEIPRP,-0.321
14,RRIRWRPPRLPRPRPRPECTPRP,0.255
15,RRIRFRPPRLPRPRPRPMQTPRP,-0.101
16,RRIRARPPRLPRPRPRPMYQPRP,-0.21
17,RRIRWRPPRLPRPRPRPCPPPRP,-0.463
18,RRIRMRPPRLPRPRPRPNNPPRP,0.395
19,RRIRCRPPRLPRPRPRPILNPRP,-0.431
20,RRIRNRPPRLPRPRPRPHIAPRP,-0.621
21,RRIRKRPPRLPRPRPRPQMAPRP,0.481
22,RRIRARPPRLPRPRPRPHRRPRP,0.212
23,RRIRLRPPRLPRPRPRPPREPRP,0.544
24,RRIRLRPPRLPRPRPRPNASPRP,0.0769
25,RRIRDRPPRLPRPRPRPFMDPRP,-0.112

row,Sequence,shrunken log2 fold change
1,RRIRHRPPRLPRPRPRPLMNPRP,-0.642
2,RRIRFRPPRLPRPRPRPPKTPRP,0.0214
3,RRIRERPPRLPRPRPRPILRPRP,0.109
4,RRIRKRPPRLPRPRPRPGEFPRP,0.242
5,RRIRKRPPRLPRPRPRPHWQPRP,0.3
6,RRIRFRPPRLPRPRPRPASFPRP,0.279
7,RRIRNRPPRLPRPRPRPGRAPRP,0.177
8,RRIRNRPPRLPRPRPRPPHEPRP,0.256
9,RRIRRRPPRLPRPRPRPFKMPRP,-0.124
10,RRIRERPPRLPRPRPRPCWWPRP,0.288
11,RRIRSRPPRLPRPRPRPYETPRP,-0.181
12,RRIRDRPPRLPRPRPRPLHCPRP,-0.145
13,RRIRTRPPRLPRPRPRPMVYPRP,-0.09
14,RRIRDRPPRLPRPRPRPSMKPRP,-0.198
15,RRIRLRPPRLPRPRPRPSGDPRP,0.0305
16,RRIRARPPRLPRPRPRPYILPRP,-0.983
17,RRIRMRPPRLPRPRPRPVNIPRP,-0.361
18,RRIRFRPPRLPRPRPRPVLFPRP,-0.172
19,RRIRCRPPRLPRPRPRPTFCPRP,-0.0442
20,RRIRLRPPRLPRPRPRPRLKPRP,0.885
21,RRIRSRPPRLPRPRPRPAVHPRP,0.0588
22,RRIRGRPPRLPRPRPRPQAIPRP,0.58
23,RRIRFRPPRLPRPRPRPKRSPRP,1.12
24,RRIRHRPPRLPRPRPRPRGCPRP,0.387
25,RRIRHRPPRLPRPRPRPPMPPRP,0.108
